Experiments:
lysozyme [1] = molecular target: T1, lysozyme (Gallus gallus, UniProt P00698); experiment: Fluorescence quenching studies; assay type: binding, chicken
T1 construct: lysozyme from chicken egg white; purchased Sigma-Aldrich; host or cells: chicken egg white (natural source)
Procedure: The fluorescence emission spectra of the HA-EGCG/lysozyme particles, HA/lysozyme mixtures, free lysozyme alone, free HA-EGCG carrier or free HA alone were measured at an excitation wavelength of 280 nm using a fluorescence spectrophotometer (Hitachi, Japan). Difference spectra between the HA-EGCG/lysozyme particles and HA-EGCG were obtained to determine the net fluorescence of lysozyme in particles of varying HA-EGCG concentrations. The same was done for HA/lysozyme mixtures.

lysozyme [2] = molecular target: T1, lysozyme; experiment: Lysozyme activity assay (M. lysodeikticus turbidity); assay type: biochemical, chicken
Procedure: To determine the activity of lysozyme, 20 μl of sample containing either free lysozyme or HA-EGCG/lysozyme particles was added to a well of a 96-well assay plate, followed by 100 μl of M. lysodeikticus (0.15% (w/v) in PBS). The decrease in turbidity was monitored by a Tecan Infinite 200 microplate reader by measuring the absorbance of the sample at 450 nm at room temperature every 3 min for 15 min. The absorbance decay plot was fitted to a linear equation, and the slopes were used to determine iysozyme activity. Regarding the restoration of activity of lysozyme that is complexed with HA-EGCG, the following protocol was used: the HA-EGCG/lysozyme particles were first allowed to self-assemble for 10 min at room temperature, with free lysozyme diluted with PBS as a control. A constant volume of Triton-X of different concentrations was then added to each sample (to a final concentration of 0.001, 0.01 or 0.1% w/v), incubated at room temperature for a further 5 min before the lysozyme substrate, M. lysodeikticus, was added, and the absorbance monitored as described above.

HCT-116 cells = experiment: Cell viability studies (AlamarBlue); assay type: cell-based, human; settings: delivered together with chloroquine; data not shown
Procedure: HCT-116 human colon carcinoma cells were obtained from ATCC, and cultured in McCoy's 5A medium supplemented with 10% FBS and 100 units/mL of penicillin/streptomycin.
HCT-116 cells were seeded at 10,000 cells per well in 96-well microplates with complete growth medium and left to attach for 48 h. Test reagents were prepared by first mixing the linear PEI (polyethylenimine) or chloroquine solution (fixed at 100 μM)) with Granzyme B (fixed at 2 μg/ml) for 15 min before adding HA-EGCG solution to the mixture and allow complexation to take place for 45 min. The medium in the wells was then aspirated and the cells were treated with the respective reagents for 48 h (all dilutions were made in serum-free medium). Cell viability was analyzed using AlamarBlue. Before analysis, the medium was aspirated and the cells were gently washed with PBS once before a mixture of 10 μl of alamarblue reagent with 100 μl of serum-containing medium was added to each well. The cells were incubated for 2 h and the fluorescence emission of each well was measured using a Tecan infinite Microplate Reader. The viabilities of treated cells were evaluated as a percentage of the negative control. Each data set is an average of 4 repeats.

T1 sequence (P00698 19-147): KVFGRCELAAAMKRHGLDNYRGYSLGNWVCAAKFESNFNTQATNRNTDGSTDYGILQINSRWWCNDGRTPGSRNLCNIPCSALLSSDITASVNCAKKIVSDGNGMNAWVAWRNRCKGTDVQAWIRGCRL

(−)-epigallocatechin gallate [EGCG]
quenching of intrinsic lysozyme fluorescence (lysozyme [1]; EX 280 nm, concentration-dependent (FIG. 5)): can quench the intrinsic fluorescence of lysozyme | quenching of intrinsic lysozyme fluorescence at the same EGCG concentration (lysozyme [1]; free EGCG vs HA-EGCG (FIG. 7)): quenches intrinsic lysozyme fluorescence to a smaller degree than HA-EGCG

free lysozyme: lysozyme from chicken egg white, model protein
apparent lysozyme activity (lysozyme [2]; 0.001% w/v Triton-X, % of original activity of free lysozyme (FIG. 9b)): 140% | maximum apparent lysozyme activity (plateau) (lysozyme [2]; 0.01% and 0.1% Triton-X (FIG. 9b)): about 160%

B1: Granzyme: protease secreted by cytotoxic T lymphocytes, activates caspase and induces apoptosis (protein, UniProt P04187 21-247, looked up)
Granzyme B(G,H): IIGGHEVKPHSRPYMALLSIKDQQPEAICGGFLIREDFVLTAAHCEGSIINVTLGAHNIKEQEKTQQVIPMVKCIPHPDYNPKTFSNDIMLLKLKSKAKRTRAVRPLNLPRRNVNVKPGDVCYVAGWGRMAPMGKYSNTLQEVELTVQKDRECESYFKNRYNKTNQICAGDPKTKRASFRGDSGGPLVCKKVAAGIVSYGYKDGSPPRAFTKVSSFLSWIKKTMKSS
cytotoxicity in HCT-116 cells (HCT-116 cells): induced cytotoxicity in HCT-116 cells

— patent publication US9226899B2, “Particulate hyaluronic acid and flavonoid formulations for cellular delivery of bioactive agents” (AGENCY FOR SCIENCE, TECHNOLOGY AND RESEARCH, priority 2009, dated 2016)
